Patent US20250019454A1 (BIOCYTOGEN PHARMACEUTICALS BEIJING, published 2025)

Experiments:
[1] = biological target: T1, human TNFR2 (expressed on cells) (human, UniProt P20333 23-461); test: cell-based or functional assay
T1 sequence: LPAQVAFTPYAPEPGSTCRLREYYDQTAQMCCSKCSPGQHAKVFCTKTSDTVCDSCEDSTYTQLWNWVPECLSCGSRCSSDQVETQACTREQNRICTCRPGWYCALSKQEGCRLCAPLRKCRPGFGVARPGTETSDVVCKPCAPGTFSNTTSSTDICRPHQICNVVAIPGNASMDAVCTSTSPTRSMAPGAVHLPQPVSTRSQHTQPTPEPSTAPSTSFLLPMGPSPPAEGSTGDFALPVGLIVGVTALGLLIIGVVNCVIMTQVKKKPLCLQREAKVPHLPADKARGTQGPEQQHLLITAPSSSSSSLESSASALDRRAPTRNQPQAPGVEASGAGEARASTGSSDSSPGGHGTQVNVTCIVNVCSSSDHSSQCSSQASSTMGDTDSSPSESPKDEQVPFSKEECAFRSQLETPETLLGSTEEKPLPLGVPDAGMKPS

[2] = biological target: T2, ΔCRD4-TNFR2 protein (with CRD4 deletion), on CHO-S cells (human, UniProt P20333 23-461); test: FACS on CHO-S cells with ΔCRD4-TNFR2
T2 construct: also called CHO-SΔCRD4-TNFR2; TNFR2 lacking CRD4
T2 sequence: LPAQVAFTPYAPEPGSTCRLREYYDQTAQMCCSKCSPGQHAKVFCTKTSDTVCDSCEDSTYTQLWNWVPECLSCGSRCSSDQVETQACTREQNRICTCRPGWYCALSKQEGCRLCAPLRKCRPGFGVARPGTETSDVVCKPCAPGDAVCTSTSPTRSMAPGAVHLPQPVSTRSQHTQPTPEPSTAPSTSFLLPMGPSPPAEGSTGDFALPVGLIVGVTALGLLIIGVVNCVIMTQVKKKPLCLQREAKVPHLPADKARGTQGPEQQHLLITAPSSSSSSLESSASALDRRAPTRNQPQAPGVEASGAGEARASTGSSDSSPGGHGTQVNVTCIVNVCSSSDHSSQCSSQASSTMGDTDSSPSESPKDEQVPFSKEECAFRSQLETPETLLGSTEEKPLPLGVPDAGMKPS
Excerpt: TNFR2 has four cysteine rich domains (CRD). In another experiment, FACS was used to detect the binding of anti-hTNFR2 antibodies to TNFR2 proteins with different structural domains. Secondary antibody (Alexa Fluor® 647 AffiniPure F(ab′) 2 Fragment Goat Anti-Human IgG, Fcγ fragment specific, Jackson ImmunoResearch Laboratories, Inc., Cat #: 151524) was used. The fluorescence-labeled secondary antibody can attach to the Fc region of the anti-hTNFR2 antibodies so that the anti-hTNFR2 antibodies that are bound to the ΔCRD cells can be detected by FACS. Specifically, ΔCRD1-TNFR2 protein (with CRD1 deleteion), ΔCRD2-TNFR2 protein (with CRD2 deleteion), ΔCRD3-TNFR2 protein (with CRD3 deleteion) or ΔCRD4-TNFR2 protein (with CRD4 deleteion) were expressed in CHO-S cells respectively, and then the binding between the cells and different anti-hTNFR2 antibodies was detected.

B1: BC-1C3-IgG1 (antibody, V domains shown)
VH: QVQLVESGGGVVHPGKSLRLSCAASGFTFNIYGMHWVRQAPGKGLEWVALISYDGNDKYFADSVKGRFTISRDNSKNTLYLQMNSLRAEDTAVYYCAKAVDTAVVTFFDYWGQGTLVTVSS
VL: EIVMTQSPVTLSVSPGERATLSCRASQSVSSNLAWYQQKPGQAPRLLIYSASTRATGIPARFSGSGSGTEFTLTISSLQSEDLAVYYCQQYSNWPFTFGPGTKVDIK
notes: Human VH/VL joined to the human IgG1 subtype
EC50 (read off the curve) [1]: ~0.4 µg/mL
binding result [2]: no binding
